± gives the half width of the 95% confidence interval.
Legend:
[1] = folding stability dG unfold from chymotrypsin proteolysis; higher = more stable
Summary of the method: (§1)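 Mini-proteins designed to be under 80 residues and free of cysteine were carried in a PA-tagged cDNA display construct and digested with trypsin and with chymotrypsin. Each protease was applied at 11 threefold-diluted concentrations, alongside a no-protease condition, before sequencing. K50 came from Bayesian fitting of the sequencing counts, and unfolding free energy was obtained by comparing it with a sequence-predicted unfolded-state K50 and a shared folded-state K50, for each protease separately or for both together. Designs were retained only if their AlphaFold2 dimer inter-PAE exceeded 15.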

[2] = folding stability dG unfold (combined trypsin and chymotrypsin); higher = more stable
Summary of the method: as §1

[3] = folding stability dG unfold from trypsin proteolysis; higher = more stable
Summary of the method: as §1

Sequence	folding stability dG unfold [1]	folding stability dG unfold [2]	folding stability dG unfold [3]
SAGGLTPEQWREIAKNFANELAKEYQERGPNVKIDVEVDPEEGYFKIKVENNDENMPRTITIPWDDIRSAGG [r13_354_TrROS]	1.35 ± 0.066 kcal/mol	1.1 ± 0.079 kcal/mol	0.701 ± 0.046 kcal/mol
SAGGLYKKDPDGQYVKPVPKVPPIPIEIKFPNGVEVKIEIYPYSNHITIEYTGPNPELANELIQEIIQSAGG [r13_701_TrROS]	0.624 ± 0.2 kcal/mol	0.702 ± 0.19 kcal/mol	0.425 ± 0.091 kcal/mol
SAGGMANPEDFKVVESLEFRDPDNGKPFTIEIAKPPDNNVPIMIWHNGSMYMFVIDGDKIEVFPIKNSAGGS [r16_711_TrROS]	1.88 ± 0.1 kcal/mol	1.75 ± 0.091 kcal/mol	1.5 ± 0.04 kcal/mol
SAGGMEIKEVKYDPEEGYLYIVVAAPPSVSPSEVVPAVVRAARELTGAEVEVEVDPETGYVVAKVPVSAGGS [r8_314_TrMRF]	1.92 ± 0.043 kcal/mol	1.77 ± 0.089 kcal/mol	1.43 ± 0.026 kcal/mol
SAGGMEIKIENIEINPDKKTIQYNFEIYHDGQPFKMDISIEVDPKNGLYKITVTYPDFPGVKHTLYIPSAGG [r13_615_TrROS]	5.27 ± 0.15 kcal/mol	5.35 ± 0.54 kcal/mol	3.38 ± 0.23 kcal/mol
SAGGMESSVTTTPDPNSDTTTTTTTVPLPDETTTTTTTTTTAPGTVTTTTTTYPPGGTPTTTTSTTASAGGS [r16_733_JUSTAS]	1.61 ± 0.052 kcal/mol	1.92 ± 0.12 kcal/mol	2.38 ± 0.17 kcal/mol
SAGGMESTSIPLEFKFEGDEEKAKKKVEEEAKKIAEEKGIEIKIEVKFDPNKPTATVTILVKGKEVEESAGG [r13_845_JUSTAS]	-0.281 ± 0.25 kcal/mol	-0.285 ± 0.22 kcal/mol	-0.411 ± 0.058 kcal/mol
SAGGMEVEITIVVPPGASLEEIEELARKLAEELGLSVENIKVTVIVVEPEEEEEEEEEKKLKEEEEKSAGGS [r16_240_TrROS_Hall]	3.04 ± 0.56 kcal/mol	2.57 ± 0.55 kcal/mol	1.93 ± 0.17 kcal/mol
SAGGMHLVIPFDSPEEALEAAKELKKEFEEKGYTVKVYYFPETGDIHVLVEMKTDGKTKYLNVTVPFPSAGG [r13_641_TrMRF]	2.05 ± 0.036 kcal/mol	1.73 ± 0.057 kcal/mol	0.83 ± 0.034 kcal/mol
SAGGMIAPDEKVLVKVTLSEGTTSRELEFEFEVPPGATEEELKQRVIDEIPEEPRKNWKVEVEIKPVSAGGS [r16_321_JUSTAS]	0.198 ± 0.24 kcal/mol	0.596 ± 0.21 kcal/mol	0.918 ± 0.056 kcal/mol
SAGGMIEKIKEAAKKLGLKVKIEEVKFDKKTKKVTIKITLENGKKIEITVEMSEEELLNAIKELIKKSAGGS [r16_153_TrROS_Hall]	3.62 ± 0.091 kcal/mol	3.34 ± 0.14 kcal/mol	2.52 ± 0.11 kcal/mol
SAGGMIEVFVEGLTLEETLRRLAEEYPDVPEVVVFFPDGTAVFFRRDGDEVEVVEVVPVGPVAPDELSAGGS [r8_225_TrMRF]	3.118 ± 0.017 kcal/mol	2.93 ± 0.061 kcal/mol	2.59 ± 0.068 kcal/mol
SAGGMIIIEGMSEEEIKNLIKEAIKKGEKVKKIVIRVNGKLYLITVDAKTKKITVEEIPLEELKKKKSAGGS [r16_481_TrROS_Hall]	1.85 ± 0.067 kcal/mol	1.4 ± 0.21 kcal/mol	0.692 ± 0.095 kcal/mol
SAGGMIPEELIRKLFEDGKPVPLEQIVELIEKLTGRPVRLEEGEDKFRIVVLDPDTPELLDEIEIDFSAGGS [r8_105_TrMRF]	1.57 ± 0.028 kcal/mol	1.55 ± 0.091 kcal/mol	1.43 ± 0.086 kcal/mol
SAGGMIQIERDKDGYLRITIWVPGDPKEAEEIAENIIELLQDLGFDEVDIDYEPFDGGVMIEITVKVSAGGS [r8_113_TrROS]	3.49 ± 0.083 kcal/mol	3.29 ± 0.077 kcal/mol	2.9 ± 0.12 kcal/mol
SAGGMIRIERDGDRLTIQIPMPPGQPPTPEQVEEFARDILKKLGPDVRVKDVSHDPNGGFTIELKVPSAGGS [r8_103_TrROS]	2.15 ± 0.051 kcal/mol	1.81 ± 0.069 kcal/mol	1.48 ± 0.028 kcal/mol
SAGGMIRITEGPNYYKITFWMPPNNPSLLEEIADFFGNPKVDTEPIPEDGMTRHEITLPLDDPEAIKSAGGS [r16_479_TrROS]	1.37 ± 0.23 kcal/mol	1.19 ± 0.27 kcal/mol	0.765 ± 0.11 kcal/mol
SAGGMISEEDIEAAAKAIVEAAKNGDPERIEEEYARLEEALEEAEKEGDPERRGRLAKAVEAAKKLLGSAGG [r13_137_TrMRF]	1.75 ± 0.043 kcal/mol	1.64 ± 0.12 kcal/mol	1.43 ± 0.02 kcal/mol
SAGGMISKKLNPPSKEEAEKIAEEIKKKNPNYKVTMTYDPKTGTYTITITPLPKPPPDPKNFKEIIKSAGGS [r16_674_JUSTAS]	1.74 ± 0.15 kcal/mol	1.48 ± 0.21 kcal/mol	1.23 ± 0.12 kcal/mol
SAGGMITEKVEKIDDGEIIKLTANLSDPSPVVAWLKATGKNVKLVEIKPTTDPETGNTTVNATFLLPSAGGS [r16_699_JUSTAS]	-0.234 ± 0.41 kcal/mol	0.0229 ± 0.22 kcal/mol	0.109 ± 0.25 kcal/mol
SAGGMITLTLPIPAEFLEKHGLDEAKKIVLEKAKEELKKLGLSEKYPIKKIEITPEPESLTATIVILSAGGS [r16_368_JUSTAS]	1.95 ± 0.026 kcal/mol	2 ± 0.04 kcal/mol	2 ± 0.036 kcal/mol
SAGGMITLTVTREDWDTVYAKLKAEKNVTVKVVKGNTWSTYPASEVKALREEIPADPNEPLTLEIVESAGGS [r16_377_JUSTAS]	0.382 ± 0.24 kcal/mol	0.283 ± 0.23 kcal/mol	0.0201 ± 0.18 kcal/mol
SAGGMIVANVNPETDKVTLLITRPVVLYDEETGELREEEVTLVITASLEELEKLEEESGLPLLIIPSSAGGS [r8_337_TrMRF]	2.16 ± 0.071 kcal/mol	1.92 ± 0.15 kcal/mol	1.63 ± 0.1 kcal/mol
SAGGMIVEEETKPTPPLPDGTLVTESKVTIYINGKKITTTVKTTTLPDGTKVVETTLKGKKLKIILESAGGS [r16_448_JUSTAS]	3.193 ± 0.027 kcal/mol	2.98 ± 0.075 kcal/mol	2.26 ± 0.07 kcal/mol
SAGGMIVTTIPGSPAIKVEIPFPETPFSATITIPIAPDGTVTADLKPHPDMSEELIEKIKELAKELLKSAGG [r13_139_JUSTAS]	0.829 ± 0.037 kcal/mol	0.849 ± 0.092 kcal/mol	1.03 ± 0.024 kcal/mol
SAGGMKEITLPNGVKITEVIEKDGYYYIKIYNKKTGKVYEIKVKKGEKIEIKFPKGSTVTKIEIVKKSAGGS [r16_123_TrROS_Hall]	3.24 ± 0.066 kcal/mol	2.8 ± 0.095 kcal/mol	1.7 ± 0.04 kcal/mol

Reference: the supplement of paper PMC12764529
